Reference: article PMC12375970 (2025)

Molecular target: importin-alpha2 (mImpα2) (Mus musculus, UniProt P52293)
Test: MST

B1: TAF8 NLS NLS (peptide)
chain: PVKKPKIRRKKSLS
In the case of B1, the Kd is reported as roughly 1 µM.
